Data set [1] addresses T1, SARS-CoV-2 spike RBD, WT, His-tagged (SARS-CoV-2 (WT), UniProt P0DTC2 319-532). The experiment in a line: BLI competition.
Data set [2] has as its target T1, SARS-CoV-2 spike RBD, WT, His-tagged. Briefly: BLI. Background: BLI is a label-free optical method that tracks binding on a fibre tip over time.
The target is the same in data set [3]. The experiment in a line: FIDA.
Data set [4] has as its target SARS-CoV-2 spike RBD, C-tagged (SARS-CoV-2 (WT), UniProt P0DTC2 319-532). Briefly: BLI competition.

The results in this text go back to article PMC8685691, “A serum-stable RNA aptamer specific for SARS-CoV-2 neutralizes viral entry”.

As usually defined, the IC50 is the concentration that gives 50% inhibition. Read a high IC50 as weaker potency. The term Kd denotes the equilibrium constant for the complex coming apart. High values mean a looser complex, low ones a tighter complex.

B1: RBD-PB6-Ta (structured_RNA)
RNA: GGCGACAUUUGUAAUUCCUGGACCGAUACUUCCGUCAGGACAGAGGUUGCCA
modifications: 2'-fluoro pyrimidines
In turn, B1 yielded an IC50 in data set [1] of 200 nM.

B2: RBD-PB6 (structured_RNA)
RNA: GGGGCCACCAACGACAUUUGUAAUUCCUGGACCGAUACUUCCGUCAGGACAGAGGUUGAUAUAAAUAGUGCCCAUGGAUCC
modifications: 2'-fluoro pyrimidines
On to B2, for which the IC50 in data set [1] is approximately 250 nM. The Kd in data set [2] is approximately 18 nM; in data set [3] it was 129 nM.

GGUUUGUAAUUCCUGGACCGAUACUUCCGUCAGGACAGACCA (structured_RNA, 2'-fluoro pyrimidines) [RBD-PB6-Tb]: the binding result in data set [4] is “no binding”.

B3: RBD-PB6-Tinv (structured_RNA)
RNA: GGCGACAUUUGUAAUAGGACGACCGAUACUUCCGUGUCCUCAGAGGUUGCCA
modifications: 2'-fluoro pyrimidines
Take B3: the binding result in data set [4] is “no binding”.

On to GGUCCUGGACCGAUACUUCCGUCAGGACCA (structured_RNA, 2'-fluoro pyrimidines) [RBD-PB6-Tc], for which the binding result in data set [4] is on record as “no binding”.

Take GGCGACAUUUGUAAUUCCUGGAUCAGGACAGAGGUUGCCA (structured_RNA, 2'-fluoro pyrimidines) [RBD-PB6-Td]: the binding result in data set [4] is reported as “no binding”.
